The results in this text go back to article PMC8809517, “Cofactor-independent RNA editing by a synthetic S-type PPR protein”.

Holding throughout (assay): high-throughput RNA pulldown from lysate on Ni-NTA beads; HRP: 50 mM Tris pH 8, 150 mM NaCl, 1 mM beta-mercaptoethanol, 50 ug/ml BSA, 3 ug/ml yeast RNA, 0.5% heparin; ITC and FP: Tris pH 8, 200 mM KCl, 5% glycerol; MST: 50 mM Tris pH 8, 200 mM NaCl, 1 mM DTT, BSA, heparin, 0.05% Tween 20
Holding throughout (conditions): tags: N-terminal His-eGFP

The target of series [1] is T1, GFP-9S library array, motif 4 ND N98H;D124G (synthetic construct, N98H;D124G).
T1 chain: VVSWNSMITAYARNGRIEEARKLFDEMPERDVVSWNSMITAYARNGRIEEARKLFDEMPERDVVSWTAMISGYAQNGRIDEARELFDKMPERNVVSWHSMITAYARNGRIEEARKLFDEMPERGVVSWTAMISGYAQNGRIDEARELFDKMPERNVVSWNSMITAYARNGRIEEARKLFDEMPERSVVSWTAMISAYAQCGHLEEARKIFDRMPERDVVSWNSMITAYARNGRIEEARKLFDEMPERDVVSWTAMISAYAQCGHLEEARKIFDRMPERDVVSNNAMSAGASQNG

Series [2] concerns the target T2, GFP-9S library array, motif 4 ND N98W;D124Q (synthetic construct, N98W;D124Q).
T2 chain: T1 chain with H98W, G124Q

For series [3], the target named is T3, GFP-9S library array, motif 4 ND N98I;D124A (synthetic construct, N98I;D124A).
T3 chain: T1 chain with H98I, G124A

Series [4] concerns the target T4, GFP-9S library array, motif 4 ND N98S;D124V (synthetic construct, N98S;D124V).
T4 chain: T1 chain with H98S, G124V

For series [5], the target named is T5, GFP-9S library array, motif 4 ND N98I;D124P (synthetic construct, N98I;D124P).
T5 chain: T1 chain with H98I, G124P

Numbering of substitutions follows the chain as printed.

The Kd is the free concentration of one partner at which half of the binding sites on the other are occupied at equilibrium, for simple one-to-one binding. A lower Kd goes with a tighter complex. Regarding AUUAUACGUGA (ssRNA) [IR-rpoA-U], the Kd in series [1] (label: 5' IRDye 800CW) was determined as 38.7 nM; in series [2] (label: 5' IRDye 800CW), 195 nM; in series [3] (label: 5' IRDye 800CW), 757 nM; in series [4] (label: 5' IRDye 800CW) it was 152 nM; in series [5] (label: 5' IRDye 800CW), 269 nM.

Consider AUUACACGUGA (ssRNA) [Cy5-rpoA], for which the Kd is 101 nM in series [1] (label: 5' Cy5); 101 nM in series [2] (label: 5' Cy5); 213 nM in series [3] (label: 5' Cy5); 114 nM in series [4] (label: 5' Cy5); 132 nM in series [5] (label: 5' Cy5).

As for AUUAGACGUGA (ssRNA) [Cy5-rpoA-G], the Kd in series [1] (label: 5' Cy5) turned out to be 37.1 nM; in series [2] (label: 5' Cy5), 94.4 nM; in series [3] (label: 5' Cy5), 259 nM; in series [4] (label: 5' Cy5), 74.5 nM; in series [5] (label: 5' Cy5) it was 112 nM.

Take AUUAAACGUGA (ssRNA) [IR-rpoA-A]: the Kd in series [1] (label: 5' IRDye 800CW) is 61.3 nM; in series [2] (label: 5' IRDye 800CW), 224 nM; in series [3] (label: 5' IRDye 800CW) it was 620 nM; in series [4] (label: 5' IRDye 800CW), 51.2 nM; in series [5] (label: 5' IRDye 800CW), 266 nM.
